# According to patent publication US20250188189A1 (published 2025):
# T1: plasma-derived human activated protein C (APC) (UniProt P04070 43-461)
# T1 chain: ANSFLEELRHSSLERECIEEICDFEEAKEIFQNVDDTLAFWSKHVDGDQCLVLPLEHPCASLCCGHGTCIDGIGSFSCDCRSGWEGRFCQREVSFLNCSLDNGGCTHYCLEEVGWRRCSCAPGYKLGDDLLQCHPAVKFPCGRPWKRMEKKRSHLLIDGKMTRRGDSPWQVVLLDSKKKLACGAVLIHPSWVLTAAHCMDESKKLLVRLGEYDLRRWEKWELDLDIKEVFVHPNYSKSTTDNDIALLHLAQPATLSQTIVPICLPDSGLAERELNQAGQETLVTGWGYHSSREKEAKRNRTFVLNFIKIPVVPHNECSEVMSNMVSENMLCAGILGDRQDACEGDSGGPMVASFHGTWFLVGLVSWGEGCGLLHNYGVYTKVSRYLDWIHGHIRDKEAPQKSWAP
# B1: TPP-24869 (antibody, V domains shown)
# VL: DIVMTQSPLSLPVTPGEPASISCRSSESVDSFGATFMHWYLQKPGQSPQLLIYLASNRASGVPDRFSGSGSGTDFTLKISRVEAEDVGVYYCQQNNEDPYTFGQGTKLEIK
# B2: TPP-24907 (antibody, V domains shown)
# VL: EIVLTQSPGTLSLSPGERATLSCRASQSVSSFGATFMHWYQQKPGQPPKLLIYLASNRASGVPDRFSGSGSGTDFTLTINPVEADDTANYYCQQNNEDPYTFGQGTKLEIK
# B3: TPP-24829 (antibody, V domains shown)
# VL: DIVLTQSPASLAVSPGQRATITCKASESVDSFGATFMHWYQQKPGQPPKLLIYLASNRASGVPDRFSGSGSGTDFTLKISRVEAEDVGVYYCQQNNEDPYTFGQGTKLEIK
# B4: TPP-24845 (antibody, V domains shown)
# VL: DIVLTQSPASLAVSPGQRATITCKASQSVSSFGATFMHWYQQKPGQPPKLLIYLASNRASGVPDRFSGSGSGTDFTLKISRVEAEDVGVYYCQQNNEDPYTFGQGTKLEIK
# B5: TPP-24861 (antibody, V domains shown)
# VL: DIVMTQSPLSLPVTPGEPASISCRSSESVDSFGATFMHWYQQKPGQPPKLLIYLASNRASGVPDRFSGSGSGTDFTLKISRVEAEDVGVYYCQQNNEDPYTFGQGTKLEIK
# B6: TPP-24913 (antibody, V domains shown)
# VL: EIVLTQSPGTLSLSPGERATLSCRASQSVSSFGATFMHWYLQKPGQSPQLLIYLASNLESGVPARFSGSGSGTDFTLKISRVEAEDVGVYYCQQNNEDPYTFGQGTKLEIK
# B7: TPP-24909 (antibody, V domains shown)
# VL: EIVLTQSPGTLSLSPGERATLSCRASQSVSSFGATFMHWYQQKPGQPPKLLIYLASNRASGVPDRFSGSGSGTDFTLKISRVEAEDVGVYYCQQNNEDPYTFGQGTKLEIK
# B8: TPP-24901 (antibody, V domains shown)
# VL: EIVLTQSPGTLSLSPGERATLSCRASESVDSFGATFMHWYLQKPGQSPQLLIYLASNRASGVPDRFSGSGSGTDFTLKISRVEAEDVGVYYCQQNNEDPYTFGQGTKLEIK
# B9: TPP-24911 (antibody, V domains shown)
# VL: EIVLTQSPGTLSLSPGERATLSCRASQSVSSFGATFMHWYLQKPGQSPQLLIYLASNLESGVPARFSGSGSGTDFTLTINPVEADDTANYYCQQNNEDPYTFGQGTKLEIK
# B10: TPP-24893 (antibody, V domains shown)
# VL: EIVLTQSPGTLSLSPGERATLSCRASESVDSFGATFMHWYQQKPGQPPKLLIYLASNRASGVPDRFSGSGSGTDFTLKISRVEAEDVGVYYCQQNNEDPYTFGQGTKLEIK
# B11: TPP-24897 (antibody, V domains shown)
# VL: EIVLTQSPGTLSLSPGERATLSCRASESVDSFGATFMHWYLQKPGQSPQLLIYLASNLESGVPARFSGSGSGTDFTLKISRVEAEDVGVYYCQQNNEDPYTFGQGTKLEIK
# B12: TPP-24917 (antibody, V domains shown)
# VL: EIVLTQSPGTLSLSPGERATLSCRASQSVSSFGATFMHWYLQKPGQSPQLLIYLASNRASGVPDRFSGSGSGTDFTLKISRVEAEDVGVYYCQQNNEDPYTFGQGTKLEIK
# B13: TPP-24847 (antibody, V domains shown)
# VL: DIVLTQSPASLAVSPGQRATITCKASQSVSSFGATFMHWYLQKPGQSPQLLIYLASNLESGVPARFSGSGSGTDFTLTINPVEADDTANYYCQQNNEDPYTFGQGTKLEIK
# B14: TPP-24841 (antibody, V domains shown)
# VL: DIVLTQSPASLAVSPGQRATITCKASQSVSSFGATFMHWYQQKPGQPPKLLIYLASNLESGVPARFSGSGSGTDFTLKISRVEAEDVGVYYCQQNNEDPYTFGQGTKLEIK
# B15: TPP-24833 (antibody, V domains shown)
# VL: DIVLTQSPASLAVSPGQRATITCKASESVDSFGATFMHWYLQKPGQSPQLLIYLASNLESGVPARFSGSGSGTDFTLKISRVEAEDVGVYYCQQNNEDPYTFGQGTKLEIK
# B16: TPP-24827 (antibody, V domains shown)
# VL: DIVLTQSPASLAVSPGQRATITCKASESVDSFGATFMHWYQQKPGQPPKLLIYLASNRASGVPDRFSGSGSGTDFTLTINPVEADDTANYYCQQNNEDPYTFGQGTKLEIK
# B17: TPP-24851 (antibody, V domains shown)
# VL: DIVLTQSPASLAVSPGQRATITCKASQSVSSFGATFMHWYLQKPGQSPQLLIYLASNRASGVPDRFSGSGSGTDFTLTINPVEADDTANYYCQQNNEDPYTFGQGTKLEIK
# B18: TPP-24853 (antibody, V domains shown)
# VL: DIVLTQSPASLAVSPGQRATITCKASQSVSSFGATFMHWYLQKPGQSPQLLIYLASNRASGVPDRFSGSGSGTDFTLKISRVEAEDVGVYYCQQNNEDPYTFGQGTKLEIK
# B19: TPP-24843 (antibody, V domains shown)
# VL: DIVLTQSPASLAVSPGQRATITCKASQSVSSFGATFMHWYQQKPGQPPKLLIYLASNRASGVPDRFSGSGSGTDFTLTINPVEADDTANYYCQQNNEDPYTFGQGTKLEIK
# B20: TPP-24875 (antibody, V domains shown)
# VL: DIVMTQSPLSLPVTPGEPASISCRSSQSVSSFGATFMHWYQQKPGQPPKLLIYLASNRASGVPDRFSGSGSGTDFTLTINPVEADDTANYYCQQNNEDPYTFGQGTKLEIK
# B21: TPP-26871 (antibody, V domains shown)
# VH: EVQLVESGGGLVQPGGSLRLSCAASGFTFSNYYMNWVRQAPGKGLEWVSYISSSSSTIYYADSVKGRFTISRDDSKNSLYLQMNSLKTEDTAVYYCAREGDYFDYWGQGTLVTVSS
# VL: DIVLTQSPASLAVSPGQRATITCKASQSVSSFGATFMHWYQQKPGQPPKLLIYLASNRASGVPDRFSGSGSGTDFTLTINPVEADDTANYYCQQNNEDPYTFGQGTKLEIKR
# B22: TPP-26873 (antibody, V domains shown)
# VH: EVQLVESGGGLVQPGGSLRLSCAASGFTFSNYYMNWVRQAPGKGLEWVSYISSSSSTIYYADSVKGRFTISRDDSKNSLYLQMNSLKTEDTAVYYCAREGDYFDYWGQGTLVTVSS
# VL: DIVLTQSPASLAVSPGQRATITCKASQSVSSFGATFMHWYLQKPGQSPQLLIYLASNRASGVPDRFSGSGSGTDFTLKISRVEAEDVGVYYCQQNNEDPYTFGQGTKLEIKR
# B23: TPP-26935 (antibody, V domains shown)
# VH: EVQLVESGGGLVQPGGSLRLSCAASGFTFSNYYINWVRQAPGKGLEWVGDIRLKSNNYEKHYAESVKGRFTISRDDSKNSLYLQMNSLKTEDTAVYYCAREGDYFDYWGQGTLVTVSS
# VL: EIVLTQSPGTLSLSPGERATLSCRASQSVSSFGATFMHWYQQKPGQPPKLLIYLASNRASGVPDRFSGSGSGTDFTLKISRVEAEDVGVYYCQQNNEDPYTFGQGTKLEIKR
# B24: TPP-26925 (antibody, V domains shown)
# VH: EVQLVESGGGLVQPGGSLRLSCAASGFTFSNYYMSWVRQAPGKGLEWVGDIRLKSNNYEKHYAESVKGRFTISRDDSKNSLYLQMNSLKTEDTAVYYCAREGDYFDYWGQGTLVTVSS
# VL: DIVLTQSPASLAVSPGQRATITCKASQSVSSFGATFMHWYLQKPGQSPQLLIYLASNRASGVPDRFSGSGSGTDFTLKISRVEAEDVGVYYCQQNNEDPYTFGQGTKLEIKR
# B25: TPP-26918 (antibody, V domains shown)
# VH: EVQLVESGGGLVQPGGSLRLSCAASGFTFSNYYMSWVRQAPGKGLEWVGDIRLKSNNYEKHYAESVKGRFTISRDDSKNSLYLQMNSLKTEDTAVYYCAREGDYFDYWGQGTLVTVSS
# VL: DIVLTQSPASLAVSPGQRATITCKASESVDSFGATFMHWYQQKPGQPPKLLIYLASNRASGVPDRFSGSGSGTDFTLKISRVEAEDVGVYYCQQNNEDPYTFGQGTKLEIKR
# B26: TPP-26921 (antibody, V domains shown)
# VH: EVQLVESGGGLVQPGGSLRLSCAASGFTFSNYYMSWVRQAPGKGLEWVGDIRLKSNNYEKHYAESVKGRFTISRDDSKNSLYLQMNSLKTEDTAVYYCAREGDYFDYWGQGTLVTVSS
# VL: EIVLTQSPGTLSLSPGERATLSCRASQSVSSFGATFMHWYQQKPGQPPKLLIYLASNRASGVPDRFSGSGSGTDFTLTINPVEADDTANYYCQQNNEDPYTFGQGTKLEIKR
# B27: TPP-29865 (antibody, V domains shown)
# VH: EVQLVESGGGLVQPGGSLRLSCAASGFTFSNYYFNWVRQAPGKGLEWVSYISSSSSTIYYADSVKGRFTISRDDSKNSLYLQMNSLKTEDTAVYYCAREGDYFDYWGQGTLVTVSS
# VL: EIVLTQSPGTLSLSPGERATLSCRASQSVSSFGATFMHWYQQKPGQPPKLLIYLASNRASGVPDRFSGSGSGTDFTLKISRVEAEDVGVYYCQQNNEDPYTFGQGTKLEIKR
# B28: TPP-29858 (antibody, V domains shown)
# VH: EVQLVESGGGLVQPGGSLRLSCAASGFTFSNYYMNWVRQAPGKGLEWVSYISSSSSTIYYADSVKGRFTISRDDSKNSLYLQMNSLKTEDTAVYYCAREGDYFDYWGQGTLVTVSS
# VL: EIVLTQSPGTLSLSPGERATLSCRASQSVSSFGATFMHWYQQKPGQPPKLLIYLARNRASGVPDRFSGSGSGTDFTLKISRVEAEDVGVYYCQQNNEDPYTFGQGTKLEIKR
# Biological target: T1, plasma-derived human activated protein …
# Assay: SPR
row,Binder,Kd [nM]
1,B1,24.2
2,B2,45.9
3,B3,31.3
4,B4,54
5,B5,24.1
6,B6,85.6
7,B7,46.2
8,B8,26.9
9,B9,43.2
10,B10,28.6
11,B11,47.9
12,B12,44.6
13,B13,85.5
14,B14,93.2
15,B15,49
16,B16,31.7
17,B17,49.8
18,B18,51.5
19,B19,48.6
20,B20,47.7

# Biological target: T1, plasma-derived human activated protein …
# Assay: SPR
# Remark: another data set of the same source
row,Binder,Kd [nM]
1,B21,13.8
2,B22,11.2
3,B23,18.6
4,B24,27.9
5,B25,13.4
6,B26,31.1

# Biological target: T1, plasma-derived human activated protein …
# Assay: SPR; head prints nM; kd/ka gives M
row,Binder,Kd [nM]
1,B27,12.7
2,B28,24.9
